Laboratory results reported in patent US20150368299A1.

Biological target: Aβ(1-40) monomer in 0.1% NaOH (human)
Test: dot blot with densitometry; Aβ form dotted on nitrocellulose in serial dilution, antibody 0.2 µg/ml; higher value = weaker recognition

Sequence of Aβ(1-40) monomer in 0.1% NaOH (human) (peptide, as listed by the source): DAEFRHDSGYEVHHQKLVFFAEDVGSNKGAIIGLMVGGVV

dot blot relation of recognition of Aβ(20-42) globulomer to recognition of this Aβ form: 110000
B1: murine monoclonal anti-Aβ(20-42) globulomer antibody m4C9 (antibody, V domains shown)
VH: QVQLQQPGAELVKPGASVKLSCKAPGYTFTSYWMHWVKQRPGQGLEWIGRIDPKSGDTKYTEKFKSKATLTVDKPSSTAYMQLSSLTSEDSAVYYCTTMSKLSGTHAWFAYWGQGTLVTVSA
VL: DIKMTQSPSSMYASLGERVTITCKASQDINSYLTWFQQKPGKSPKTLIYRANRLVDGVPSRFSGSGSGQDYSLTISSLEYEDMGIYYCLQYDEFPLTFGAGTKLELK
